Reference: patent CN115925945A (GUANGDONG FEIPENG PHARMACEUTICAL CO LTD, dated 2023)

Biological target: T1, 人TIGIT (全长, 表达于CHO工程细胞CHO-hTIGIT) (human, UniProt Q495A1 22-244)
T1 construct: whole, on cells
T1 sequence (looked up): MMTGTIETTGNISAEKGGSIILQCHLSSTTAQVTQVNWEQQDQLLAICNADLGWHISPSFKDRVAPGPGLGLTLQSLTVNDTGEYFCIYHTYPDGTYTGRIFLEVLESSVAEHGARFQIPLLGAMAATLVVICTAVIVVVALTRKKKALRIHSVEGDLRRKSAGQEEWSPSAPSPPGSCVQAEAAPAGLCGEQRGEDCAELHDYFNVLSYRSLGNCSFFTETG
Assay: in vitro binding activity after stress tests (acid, base, freeze-thaw, high temperature)

B1: 抗TIGIT人源化抗体15H10L3 (R0774), hIgG1亚型 (antibody, V domains shown)
VH: QVQLVQSGAEVKKPGSSVKVSCKASGYSFTSYWMNWVRQAPGQGLEWIGMIRPSDSETRLNQMFKDRVTITVDKSTSTAYMELSSLRSEDTAVYYCAGIHDYGHGAYWGQGTLVTVSS
VL: DIQMTQSPSSLSASVGDRVTITCRASENIYSNLAWYQQKPGKSPKLLVYAASHLPDGVPSRFSGSGSGTDYSLTISSLQPEDFATYYCQHFWGTPRTFGQGTKLEIKR
notes: Full-length chains printed for R0774 (hIgG1 with K214R/D356E/L358M, human kappa); Humanized from TIGIT-5 murine mAb; also called 15H10L3-hIgG1
binding result: binds
